Data from PMC6920703, “Measuring glycolytic flux in single yeast cells with an orthogonal synthetic biosensor” (Molecular Systems Biology, 2019).
“Also recorded” adds a separate entry of the source.

Assays:
[1] = system: CggR wild type (Bacillus subtilis); assay: EMSA; conditions: 20 mM FBP; 35 nM DNA, 2 or 4 uM CggR, 10 mM Na3PO4 pH 7.8, 100 mM NaCl, 1 mM EDTA, 1 mM DTT, 5% glycerol, 1 ug salmon sperm DNA, 20 min room temperature; 5% native PAGE …
[2] = system: CggR R250A (Bacillus subtilis); assay: EMSA; conditions: 20 mM FBP; 35 nM DNA, 2 or 4 uM CggR, 10 mM Na3PO4 pH 7.8, 100 mM NaCl, 1 mM EDTA, 1 mM DTT, 5% glycerol, 1 ug salmon sperm DNA, 20 min room temperature; 5% native PAGE …
[3] = Thermal shift assay: protein stability (melting temperature) of CggR variants; conditions: for Protein stability: desired/undesired sign / Protein stability: Fig 5D; for Protein stability: compared with wild type
Procedure: A sample mixture of 25 μl final volume containing 5 μl of 5× SYPRO Orange (Molecular Probes; Eugene, OR), 0.2 mg of the purified CggR, and different concentrations of the FBP metabolite (0; 0.01; 0.1; 0.5; 0.75; 1; 2.5; 10; 20; and 36 mM) was prepared on ice. Control experiments were performed to test the effect of the counter ion NaCl present in FBP salt solutions. Here, the NaCl was added instead of FBP to a final concentration threefold higher than the FBP itself (0; 0.03; 0.3; 1.5; 2.25; 3; 7.5; 30; 60; and 108 mM).
Sample mixtures were transferred into 96‐well PCR plates (Bio‐Rad, CA, USA), sealed with Optical‐Quality Sealing Tape (Bio‐Rad, CA, USA), and analyzed in a CFX96 Real‐Time System combined with C1000 Touch Thermal Cycler (Bio‐Rad, CA, USA). Analysis consisted of a single heating cycle from 20 to 99°C with increments of 0.5°C steps, followed by fluorescence intensity monitoring with a charge‐coupled device camera. The wavelengths for excitation and emission were 490 and 575 nm, respectively. The melting temperature (T m) was automatically calculated by the control software and corresponded to the local maximum of the first derivative of measured fluorescence versus temperature.

[4] = Thermal shift assay: CggR-FBP affinity constants (KD) from melting curves; format: binding; conditions: for KD ratio change (KD of the CggR mutant variant / KD of the wild type) / KD ratio change: desired/undesired sign: Fig 5D; for Obtained effects on affinity for FBP: classification based on thermal shift assays; on KD ratio change: desired/undesired sign: key: +: A plus sign indicates desired characteristics achieved in the mutants; -: a minus sign indicates undesired effects of the mutations
Procedure: The K D of the wild type and mutant CggR variants was calculated by fitting the T m data into a simple cooperative model using the GraphPad software.

[5] = system: DNA fragments containing the CggR operator sites; assay: Electrophoresis mobility shift assay: CggR binding to DNA; conditions: for DNA binding affinity: desired/undesired sign / DNA binding affinity: Fig 5D; for DNA binding affinity: compared with wild type; for CggR binding to DNA in the absence of FBP: 0 mM FBP, Fig 5C; on DNA binding affinity: desired/undesired sign: key: +: A plus sign indicates desired characteristics achieved in the mutants; -: a minus sign indicates undesired effects of the mutations
Procedure: Fluorescently labeled DNA fragments were generated by hybridization of single‐stranded forward (labeled with Alexa Fluor 647 at the 5′ end) and reverse (unlabeled) oligonucleotides containing the CggR operator sites. The hybridization protocol and respective hybridization efficiency control were performed as described elsewhere (Bley Folly et al, 2018).
Hybridized labeled DNA fragments (final concentration 35 nM) were incubated 20 min at room temperature with 2 or 4 μM of the purified wild type or mutant CggR variants, in the presence of different concentrations of FBP (0; 0.5; 1; 2.5; 5; 10; and 20 mM) in a final volume of 25 μl in binding buffer (10 mM Na3PO4 pH 7.8, 100 mM NaCl, 1 mM EDTA, 1 mM DTT, 5% glycerol) including 1 μg of salmon sperm DNA. The sample mixtures were loaded in a 5% native polyacrylamide gel and run in native conditions in the dark with constant voltage (200V) at 4°C for 2 h.
Fluorescence was imaged using the Typhoon 9400 (Amersham Biosciences, UK) with the excitation set to 650 nm and the emission set to 655 nm. The background‐subtracted total intensities of the protein–DNA complex and the free‐DNA bands were assessed using ImageJ (Abràmoff et al, 2004), and bound DNA/total DNA was calculated by dividing the intensity of the protein–DNA complex band by the total DNA (i.e., the sum of the signal from the protein–DNA complex band plus the one from free DNA).

[6] = KD for FBP relative to wild type CggR (1 mM)

## CggR operator duplex (CggRO)
[1]
  binding signal (% of CggR remaining bound vs 0 mM FBP): 30
[2]
  binding signal (% of CggR remaining bound vs 0 mM FBP): 30

B1: T151S: CggR mutant, position 151 Thr to Ser, at the CggR-FBP-binding site (protein, UniProt O32253 1-340, looked up, variant T151S)
Central glycolytic genes …: MNQLIQAQKKLLPDLLLVMQKRFEILQYIRLTEPIGRRSLSASLGISERVLRGEVQFLKEQNLVDIKTNGMTLTEEGYELLSVLEDTMKDVLGLTLLEKTLKERLNLKDAIIVSGDSDQSPWVKKEMGRAAVACMKKRFSGKNIVAVTGGSTIEAVAEMMTPDSKNRELLFVPARGGLGEDVKNQANTICAHMAEKASGTYRLLFVPGQLSQGAYSSIIEEPSVKEVLNTIKSASMLVHGIGEAKTMAQRRNTPLEDLKKIDDNDAVTEAFGYYFNADGEVVHKVHSVGMQLDDIDAIPDIIAVAGGSSKAEAIEAYFKKPRNTVLVTDEGAAKKLLRDE
[3]
  Obtained effects on stability: No effect
  Protein stability: desired/undesired sign: +
  Protein stability: Same range
[4]
  KD ratio change (KD of the CggR mutant variant / KD of the wild type): 0.90
  KD ratio change: desired/undesired sign: -
  Obtained effects on affinity for FBP: mild affinity increase
[4]; [6]
  fold lower KD than wild type: 1.1 fold
[5]
  Obtained effects on DNA binding affinity: No effect
  DNA binding affinity: desired/undesired sign: +
  DNA binding affinity: Same range

B2: R175K: CggR mutant, position 175 Arg to Lys, at the CggR-FBP-binding site (protein, UniProt O32253 1-340, looked up, variant R175K)
Central glycolytic genes …: MNQLIQAQKKLLPDLLLVMQKRFEILQYIRLTEPIGRRSLSASLGISERVLRGEVQFLKEQNLVDIKTNGMTLTEEGYELLSVLEDTMKDVLGLTLLEKTLKERLNLKDAIIVSGDSDQSPWVKKEMGRAAVACMKKRFSGKNIVAVTGGTTIEAVAEMMTPDSKNRELLFVPAKGGLGEDVKNQANTICAHMAEKASGTYRLLFVPGQLSQGAYSSIIEEPSVKEVLNTIKSASMLVHGIGEAKTMAQRRNTPLEDLKKIDDNDAVTEAFGYYFNADGEVVHKVHSVGMQLDDIDAIPDIIAVAGGSSKAEAIEAYFKKPRNTVLVTDEGAAKKLLRDE
[3]
  Obtained effects on stability: No effect
  Protein stability: desired/undesired sign: +
  Protein stability: Same range
[4]
  KD ratio change (KD of the CggR mutant variant / KD of the wild type): 0.98
  KD ratio change: desired/undesired sign: -
  Obtained effects on affinity for FBP: negligible affinity increase
[5]
  Obtained effects on DNA binding affinity: Disrupted affinity
  CggR binding to DNA in the absence of FBP: did not bind to the DNA anymore
  DNA binding affinity: desired/undesired sign: -
  DNA binding affinity: No binding

B3: R250A: CggR mutant, position 250 Arg to Ala; selected for the glycolytic flux biosensor (protein, UniProt O32253 1-340, looked up, variant R250A)
Central glycolytic genes …: MNQLIQAQKKLLPDLLLVMQKRFEILQYIRLTEPIGRRSLSASLGISERVLRGEVQFLKEQNLVDIKTNGMTLTEEGYELLSVLEDTMKDVLGLTLLEKTLKERLNLKDAIIVSGDSDQSPWVKKEMGRAAVACMKKRFSGKNIVAVTGGTTIEAVAEMMTPDSKNRELLFVPARGGLGEDVKNQANTICAHMAEKASGTYRLLFVPGQLSQGAYSSIIEEPSVKEVLNTIKSASMLVHGIGEAKTMAQARNTPLEDLKKIDDNDAVTEAFGYYFNADGEVVHKVHSVGMQLDDIDAIPDIIAVAGGSSKAEAIEAYFKKPRNTVLVTDEGAAKKLLRDE
[3]
  Obtained effects on stability: No effect
  Protein stability: Same range
[4]
  KD ratio change (KD of the CggR mutant variant / KD of the wild type): 1.52
  KD ratio change: desired/undesired sign: +
  Obtained effects on affinity for FBP: desired decrease in FBP affinity; also recorded: strong affinity decrease
[5]
  Obtained effects on DNA binding affinity: No effect
  CggR binding to DNA in the absence of FBP: similar
  DNA binding affinity: desired/undesired sign: +
  DNA binding affinity: Same range
[5]; 20 mM FBP relative to bound fraction at 0 mM FBP
  CggR remained bound to DNA at high FBP levels: around 30%

B4: T151V: CggR mutant, position 151 Thr to Val, at the CggR-FBP-binding site (protein, UniProt O32253 1-340, looked up, variant T151V)
Central glycolytic genes …: MNQLIQAQKKLLPDLLLVMQKRFEILQYIRLTEPIGRRSLSASLGISERVLRGEVQFLKEQNLVDIKTNGMTLTEEGYELLSVLEDTMKDVLGLTLLEKTLKERLNLKDAIIVSGDSDQSPWVKKEMGRAAVACMKKRFSGKNIVAVTGGVTIEAVAEMMTPDSKNRELLFVPARGGLGEDVKNQANTICAHMAEKASGTYRLLFVPGQLSQGAYSSIIEEPSVKEVLNTIKSASMLVHGIGEAKTMAQRRNTPLEDLKKIDDNDAVTEAFGYYFNADGEVVHKVHSVGMQLDDIDAIPDIIAVAGGSSKAEAIEAYFKKPRNTVLVTDEGAAKKLLRDE
[3]
  Obtained effects on stability: Strong decrease
  Protein stability: Very low
[4]
  KD ratio change (KD of the CggR mutant variant / KD of the wild type): 2.59
  KD ratio change: desired/undesired sign: +
  Obtained effects on affinity for FBP: strong affinity decrease
[4]; [6]
  fold increase of KD over wild type: 2.6 fold
[5]
  Obtained effects on DNA binding affinity: Reduced affinity
  CggR binding to DNA in the absence of FBP: only bound with lower affinity
  DNA binding affinity: desired/undesired sign: -
  DNA binding affinity: Reduced

B5: E269Q: CggR mutant, position 269 Glu to Gln, at the CggR-FBP-binding site (protein, UniProt O32253 1-340, looked up, variant E269Q)
Central glycolytic genes …: MNQLIQAQKKLLPDLLLVMQKRFEILQYIRLTEPIGRRSLSASLGISERVLRGEVQFLKEQNLVDIKTNGMTLTEEGYELLSVLEDTMKDVLGLTLLEKTLKERLNLKDAIIVSGDSDQSPWVKKEMGRAAVACMKKRFSGKNIVAVTGGTTIEAVAEMMTPDSKNRELLFVPARGGLGEDVKNQANTICAHMAEKASGTYRLLFVPGQLSQGAYSSIIEEPSVKEVLNTIKSASMLVHGIGEAKTMAQRRNTPLEDLKKIDDNDAVTQAFGYYFNADGEVVHKVHSVGMQLDDIDAIPDIIAVAGGSSKAEAIEAYFKKPRNTVLVTDEGAAKKLLRDE
[3]
  Obtained effects on stability: Strong decrease
  Protein stability: Very low
[4]
  KD ratio change (KD of the CggR mutant variant / KD of the wild type): 0.79
  KD ratio change: desired/undesired sign: -
  Obtained effects on affinity for FBP: mild affinity increase
[5]
  Obtained effects on DNA binding affinity: Disrupted affinity
  CggR binding to DNA in the absence of FBP: did not bind to the DNA anymore
  DNA binding affinity: desired/undesired sign: -
  DNA binding affinity: No binding

B6: T152S: CggR mutant, position 152 Thr to Ser, at the CggR-FBP-binding site (protein, UniProt O32253 1-340, looked up, variant T152S)
Central glycolytic genes …: MNQLIQAQKKLLPDLLLVMQKRFEILQYIRLTEPIGRRSLSASLGISERVLRGEVQFLKEQNLVDIKTNGMTLTEEGYELLSVLEDTMKDVLGLTLLEKTLKERLNLKDAIIVSGDSDQSPWVKKEMGRAAVACMKKRFSGKNIVAVTGGTSIEAVAEMMTPDSKNRELLFVPARGGLGEDVKNQANTICAHMAEKASGTYRLLFVPGQLSQGAYSSIIEEPSVKEVLNTIKSASMLVHGIGEAKTMAQRRNTPLEDLKKIDDNDAVTEAFGYYFNADGEVVHKVHSVGMQLDDIDAIPDIIAVAGGSSKAEAIEAYFKKPRNTVLVTDEGAAKKLLRDE
[3]
  Obtained effects on stability: No effect
  Protein stability: desired/undesired sign: +
  Protein stability: Same range
[4]
  KD ratio change (KD of the CggR mutant variant / KD of the wild type): 0.62
  KD ratio change: desired/undesired sign: -
[4]; [6]
  fold lower KD than wild type: 1.6 fold
[5]
  Obtained effects on DNA binding affinity: No effect
  DNA binding affinity: desired/undesired sign: +
  DNA binding affinity: Same range
